The target in experiment [1] is T1, Cynomolgus monkey recombinant glycophorin A ectodomain (Cynomolgus monkey).
T1 construct: extracellular domain
The experiment can be described thus: ELISA, Fab on coated recombinant cyno GPA ectodomain. A general note: An ELISA detects its analyte on a solid surface through an enzyme-linked reagent.

The target in experiment [2] is T2, human glycophorin A on human red blood cells or red blood cell membranes (human, UniProt P02724 20-150).
T2 construct: whole, on cells; also called hRBC; human RBC membranes
T2 sequence (looked up): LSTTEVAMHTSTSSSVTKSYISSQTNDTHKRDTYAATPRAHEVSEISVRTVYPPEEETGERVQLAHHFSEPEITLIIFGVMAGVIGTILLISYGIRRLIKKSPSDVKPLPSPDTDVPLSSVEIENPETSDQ
The experiment can be described thus: ELISA, Fab on coated human RBC membranes.

Experiment [3] addresses T3, native human glycophorin A protein (human, UniProt P02724 20-150).
T3 construct: mature; also called Hu-nat GPA
T3 sequence (looked up): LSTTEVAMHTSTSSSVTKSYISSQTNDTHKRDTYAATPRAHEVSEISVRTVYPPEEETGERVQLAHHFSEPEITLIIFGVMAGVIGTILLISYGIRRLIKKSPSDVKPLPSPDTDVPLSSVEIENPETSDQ
The experiment can be described thus: ELISA, Fab on coated native human GPA.

Experiment [4] concerns the target T2, human glycophorin A on human red blood …. The experiment can be described thus: SPR (Biacore), Fab over human RBC membranes, 1:1 fit.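 Also: human RBC membrane preparations captured on an L1 sensor surface, with antibody passed over them as analyte.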
Experimental: Kinetic analysis of the antibody binding to human red blood cell membranes was also performed using surface plasmon resonance (SPR) using a Biacore instrument. In this assay membranes prepared from human red blood cells were attached to a L1 sensor matrix and antibodies were flowed over the RBC membranes.
The target of experiment [5] is T4, Cynomolgus monkey glycophorin A on Cynomolgus monkey red blood cells or red blood cell membranes (Cynomolgus monkey).
T4 construct: whole, on cells; also called Cyno RBC; Cynomolgus monkey RBC membranes
The experiment can be described thus: ELISA, Fab on coated cyno RBC membranes.

Experiment [6] concerns the target T5, recombinant human glycophorin A ectodomain protein (human, UniProt P02724 20-91).
T5 construct: 72 amino acids of the extracellular region; also called Hu-rec GPA
T5 sequence: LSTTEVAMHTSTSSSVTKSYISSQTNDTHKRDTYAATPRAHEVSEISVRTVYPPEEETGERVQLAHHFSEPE
The experiment can be described thus: ELISA, Fab on coated recombinant human GPA ectodomain.

The target in experiment [7] is T6, human glycophorin A on human red blood cells (human, UniProt P02724 20-150).
T6 construct: whole, on cells; also called human GPA; huGPA
T6 sequence (looked up): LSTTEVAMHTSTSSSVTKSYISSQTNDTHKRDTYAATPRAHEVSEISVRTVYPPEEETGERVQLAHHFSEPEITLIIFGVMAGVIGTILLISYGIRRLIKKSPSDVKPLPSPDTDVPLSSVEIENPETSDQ
The experiment can be described thus: partition to human RBC, vWF deficient plasma, 5 min.

Experiment [8] addresses T6, human glycophorin A on human red blood …. The experiment can be described thus: partition to human RBC, vWF deficient plasma, 30 min.
For experiment [9], the target named is T7, Cynomolgus monkey glycophorin A on Cynomolgus monkey red blood cells (Cynomolgus monkey).
T7 construct: whole, on cells; also called Cyno GPA; Cyno RBC
The experiment can be described thus: partition to Cyno RBC, human HemA plasma, 30 min.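 Also: FVIII fusion spiked at 1 IU/mL into RBC suspension at whole-blood density.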

Experiment [10] has as its target T6, human glycophorin A on human red blood …. The experiment can be described thus: partition to human RBC, human HemA plasma, 5 min.
Experimental: (§1) The supernatant containing plasma, platelets and white blood cells was discarded and the red blood cell pellet was resuspended in 10 pellet volumes of PBS (50 mM Phosphate buffer, pH7.4, 150 mM NaCl). The red blood cells were then pelleted by slow speed centrifugation and the red blood cells re-suspended in 10 volumes of PBS. This washing step was repeated 4 more times and the red blood cells finally resuspended in a volume of plasma from Hemophilia patients with less than 1% of normal levels of FVIII (GeorgeKing Bio-Medical, Overland Park, Kans.) to generate a total volume equal to the initial blood volume such that the RBC density was equal to that of normal whole blood. BDD and RBC targeted FVIII molecules were then spiked into RBC suspension in HemA plasma at 1 IU/mL, and incubated at room temperature for 2-3 hours with gentle rotation. […] An additional control was performed in which BDD or RBC targeted FVIII molecules were added at 11U/ml into the same human hemophilia A plasma and incubated for 5 minutes and 180 mins. These samples were used to determine the input FVIII activity in the presence of plasma which was used to calculate the percentage of the molecule that was bound to RBC. All plasma samples were then assayed together for FVIII activity using the Coatest SP assay (DiaPharma, Columbus, Ohio). The assay was performed following the manufacturer's instructions in a 96-well plate format. […] The plate was incubated at 37° C. for 10 minutes with shaking between each reagent addition. […] The amount of FVIII activity in the plasma reflects the amount of unbound FVIII. The FVIII activity of the same molecule spiked in to Hemophilia A plasma alone (no RBC) and incubated for 5 minutes was normalized to 100%.
In experiment [11] the target is T7, Cynomolgus monkey glycophorin A on …. The experiment can be described thus: partition to Cyno RBC, human HemA plasma, 1 min.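 Also: FVIII fusion spiked at 1 IU/mL into RBC suspension at whole-blood density.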
Experimental: (§2) To evaluate partition to cynomolgus monkey or human red blood cells, whole blood was draw from Cynomolgus monkey or normal human volunteers in to anticoagulant with 4% sodium citrate (Sigma, St Louis, Mo.). The red blood cells were purified by layering the whole blood on to ficoll followed by low speed centrifugation. The supernatant containing plasma, platelets and white blood cells was discarded and the red blood cell pellet was resuspended in 10 pellet volumes of PBS (50 mM Phosphate buffer, pH7.4, 150 mM NaCl). The red blood cells were then pelleted by slow speed centrifugation and the red blood cells re-suspended in 10 volumes of PBS. This washing step was repeated 4 more times and the red blood cells finally resuspended in a volume of plasma from Hemophilia patients with less than 1% of normal levels of FVIII (GeorgeKing Bio-Medical, Overland Park, Kans.) to generate a total volume equal to the initial blood volume such that the RBC density was equal to that of normal whole blood. BDD and RBC targeted FVIII molecules were then spiked into RBC suspension in HemA plasma at 1 IU/mL, and incubated at room temperature for 2-3 hours with gentle rotation. […] An additional control was performed in which BDD or RBC targeted FVIII molecules were added at 11U/ml into the same human hemophilia A plasma and incubated for 5 minutes and 180 mins. These samples were used to determine the input FVIII activity in the presence of plasma which was used to calculate the percentage of the molecule that was bound to RBC. All plasma samples were then assayed together for FVIII activity using the Coatest SP assay (DiaPharma, Columbus, Ohio). The assay was performed following the manufacturer's instructions in a 96-well plate format. […] The plate was incubated at 37° C. for 10 minutes with shaking between each reagent addition.
Experiment [12] deals with T6, human glycophorin A on human red blood …. The experiment can be described thus: partition to human RBC, human HemA plasma, 120 min.
Experimental: as §1
Experiment [13] shares this target. The experiment can be described thus: partition to human RBC, human HemA plasma, 15 min.
The target is the same in experiment [14]. The experiment can be described thus: partition to human RBC, human HemA plasma, 60 min.
Experimental: as §1
Experiment [15] deals with T7, Cynomolgus monkey glycophorin A on …. The experiment can be described thus: partition to Cyno RBC, human HemA plasma, 15 min.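 Also: FVIII fusion spiked at 1 IU/mL into RBC suspension at whole-blood density.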
Experiment [16] addresses T6, human glycophorin A on human red blood …. The experiment can be described thus: partition to human RBC, human HemA plasma, 120 min. This is another data set of the same source.
Experiment [17] has the same target. The experiment can be described thus: partition to human RBC, vWF deficient plasma, 120 min.
For experiment [18] the target is unchanged. The experiment can be described thus: partition to human RBC, vWF deficient plasma, 1 min.
For experiment [19] the target is unchanged. The experiment can be described thus: partition to human RBC, vWF deficient plasma, 15 min.
The target in experiment [20] is T7, Cynomolgus monkey glycophorin A on …. The experiment can be described thus: partition to Cyno RBC, human HemA plasma, 60 min.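 Also: FVIII fusion spiked at 1 IU/mL into RBC suspension at whole-blood density.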
Experiment [21] concerns the target T6, human glycophorin A on human red blood …. The experiment can be described thus: partition to human RBC, human HemA plasma, 1 min.
The target is the same in experiment [22]. The experiment can be described thus: partition to human RBC, vWF deficient plasma, 60 min.
For experiment [23], the target named is T7, Cynomolgus monkey glycophorin A on …. The experiment can be described thus: partition to Cyno RBC, human HemA plasma, 120 min.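 Also: FVIII fusion spiked at 1 IU/mL into RBC suspension at whole-blood density.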
The target in experiment [24] is T6, human glycophorin A on human red blood …. The experiment can be described thus: partition to human RBC, human HemA plasma, 30 min.
Experiment [25] has as its target T7, Cynomolgus monkey glycophorin A on …. The experiment can be described thus: partition to Cyno RBC, human HemA plasma, 5 min.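 Also: FVIII fusion spiked at 1 IU/mL into RBC suspension at whole-blood density.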
Experimental: as §2
In experiment [26] the target is T8, glycophorin A peptide GP5 (human, biotin at the N-terminus).
T8 construct: Residues 42 to 61 of the human glycophorin A extracellular domain
T8 peptide: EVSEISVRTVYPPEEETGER
The experiment can be described thus: Octet, GP5 peptide on the probe, fusion protein in solution, 1:1 fit. In general terms: Biolayer interferometry detects binding as a change in optical thickness at a sensor tip.

B1: TPP-5702, Hu6C12-24 Fab variant VL: (S24R, A26S, S49A, P54Q, F95Y) (Fab, V domains shown)
VH: EVQLVQSGAEVKKPGASVKVSCKASGYTFTTYTIHWVRQAPGQGLEWIGYINPSSDYTRYNPKFKDRVTLTTDKSTSTAYMELRSLRSDDTAVYYCQTGTRDYWGQGTTVTVSS
VL: DIQLTQSPSFLSASVGDRVTITCRASSSVSYIYWFQQKPGKAPKLLIYATSTLQSGVPSRFSGSGSGTEYTLTISSLQPEDFATYYCHQRNSFPYTFGQGTKLEIKR
notes: Built on the parental Fab TPP-4935
Take B1: the “binding in ELISA relative to parental Fab” value in [1] was 1.1 relative to parental Fab; in experiment [2] it was 10.2 relative to parental Fab; in experiment [3] it was 5.2 relative to parental Fab; in [5], 1.1 relative to parental Fab; in [6], 4.3 relative to parental Fab. In [4], binding was put at a Kd of 170 nM. In experiment [4], this molecule yielded a koff of 0.11 s⁻¹. In experiment [4], the kon was found to be 650000 M⁻¹ s⁻¹.

B2: TPP-5835, Hu6C12-24 Fab variant VL: (S24R, A26S, S49A, P54Q, F95Y); VH: (I48M, L70M) (Fab, V domains shown)
VH: EVQLVQSGAEVKKPGASVKVSCKASGYTFTTYTIHWVRQAPGQGLEWMGYINPSSDYTRYNPKFKDRVTMTTDKSTSTAYMELRSLRSDDTAVYYCQTGTRDYWGQGTTVTVSS
VL: DIQLTQSPSFLSASVGDRVTITCRASSSVSYIYWFQQKPGKAPKLLIYATSTLQSGVPSRFSGSGSGTEYTLTISSLQPEDFATYYCHQRNSFPYTFGQGTKLEIKR
notes: as for B1
Regarding B2, the “binding in ELISA relative to parental Fab” value in [1] is 1.1 relative to parental Fab; in experiment [2] it was 10.3 relative to parental Fab; in experiment [3], 5.2 relative to parental Fab; in experiment [5] it was 1.4 relative to parental Fab; in [6], 4.3 relative to parental Fab.

B3: TPP-5839, Hu6C12-24 Fab variant VL: (S24R, A26S, S49A, P54Q, F95Y); VH: (I48M, D66G, L70M, T72R) (Fab, V domains shown)
VH: EVQLVQSGAEVKKPGASVKVSCKASGYTFTTYTIHWVRQAPGQGLEWMGYINPSSDYTRYNPKFKGRVTMTRDKSTSTAYMELRSLRSDDTAVYYCQTGTRDYWGQGTTVTVSS
VL: DIQLTQSPSFLSASVGDRVTITCRASSSVSYIYWFQQKPGKAPKLLIYATSTLQSGVPSRFSGSGSGTEYTLTISSLQPEDFATYYCHQRNSFPYTFGQGTKLEIKR
notes: as for B1
As for B3, the “binding in ELISA relative to parental Fab” value was 1.2 relative to parental Fab in experiment [1]; 5.8 relative to parental Fab in experiment [2]; 5.8 relative to parental Fab in [3]; 2.3 relative to parental Fab in [5]; 4.7 relative to parental Fab in experiment [6]. The molecule also yielded a dissociation constant (Kd) in [4] of 1.6 nM. In [4], the dissociation rate constant (koff) stood at 0.0035 s⁻¹. In experiment [4], the kon was 2.1e+06 M⁻¹ s⁻¹.

B4: TPP-8741 FVIII-scFv fusion protein (other)
chain: ATRRYYLGAVELSWDYMQSDLGELPVDARFPPRVPKSFPFNTSVVYKKTLFVEFTDHLFNIAKPRPPWMGLLGPTIQAEVYDTVVITLKNMASHPVSLHAVGVSYWKASEGAEYDDQTSQREKEDDKVFPGGSHTYVWQVLKENGPMASDPLCLTYSYLSHVDLVKDLNSGLIGALLVCREGSLAKEKTQTLHKFILLFAVFDEGKSWHSETKNSLMQDRDAASARAWPKMHTVNGYVNRSLPGLIGCHRKSVYWHVIGMGTTPEVHSIFLEGHTFLVRNHRQASLEISPITFLTAQTLLMDLGQFLLFCHISSHQHDGMEAYVKVDSCPEEPQLRMKNNEEAEDYDDDLTDSEMDVVRFDDDNSPSFIQIRSVAKKHPKTWVHYIAAEEEDWDYAPLVLAPDDRSYKSQYLNNGPQRIGRKYKKVRFMAYTDETFKTREAIQHESGILGPLLYGEVGDTLLIIFKNQASRPYNIYPHGITDVRPLYSRRLPKGVKHLKDFPILPGEIFKYKWTVTVEDGPTKSDPRCLTRYYSSFVNMERDLASGLIGPLLICYKESVDQRGNQIMSDKRNVILFSVFDENRSWYLTENIQRFLPNPAGVQLEDPEFQASNIMHSINGYVFDSLQLSVCLHEVAYWYILSIGAQTDFLSVFFSGYTFKHKMVYEDTLTLFPFSGETVFMSMENPGLWILGCHNSDFRNRGMTALLKVSSCDKNTGDYYEDSYEDISAYLLSKNNAIEPRSFSQNGGGGSTGGTGGSSGGGTGSGGGGTGGSGGTDIQLTQSPSFLSASVGDRVTITCRASSSVRYIYWFQQKPGKAPKLLIYATSFRQSGVPSRFSGSGSGTEYTLTISSLQPEDFATYYCHQRNSFPYTFGQGTKLEIKGGGGSGGGGSGGGGSGGGGSEVQLVQSGAEVKKPGASVKVSCKASGYTFTTYAIHWVRQAPGQGLEWMGYINPSSGYTRYNPKFKGRVTMTRDKSTSTAYMELRSLRSDDTAVYYCWTGTRDYWGQGTTVTVSSGGGGSQNPPVLKRHQREITRTTLQSDQEEIDYDDTISVEMKKEDFDIYDEDENQSPRSFQKKTRHYFIAAVERLWDYGMSSSPHVLRNRAQSGSVPQFKKVVFQEFTDGSFTQPLYRGELNEHLGLLGPYIRAEVEDNIMVTFRNQASRPYSFYSSLISYEEDQRQGAEPRKNFVKPNETKTYFWKVQHHMAPTKDEFDCKAWAYFSDVDLEKDVHSGLIGPLLVCHTNTLNPAHGRQVTVQEFALFFTIFDETKSWYFTENMERNCRAPCNIQMEDPTFKENYRFHAINGYIMDTLPGLVMAQDQRIRWYLLSMGSNENIHSIHFSGHVFTVRKKEEYKMALYNLYPGVFETVEMLPSKAGIWRVECLIGEHLHAGMSTLFLVYSNKCQTPLGMASGHIRDFQITASGQYGQWAPKLARLHYSGSINAWSTKEPFSWIKVDLLAPMIIHGIKTQGARQKFSSLYISQFIIMYSLDGKKWQTYRGNSTGTLMVFFGNVDSSGIKHNIFNPPIIARYIRLHPTHYSIRSTLRMELMGCDLNSCSMPLGMESKAISDAQITASSYFTNMFATWSPSKARLHLQGRSNAWRPQVNNPKEWLQVDFQKTMKVTGVTTQGVKSLLTSMYVKEFLISSSQDGHQWTLFFQNGKVKVFQGNQDSFTPVVNSLDPPLLTRYLRIHPQSWVHQIALRMEVLGCEAQDLY
notes: The entry is the mature protein; mostly a 2 chain molecule; also called BDD-Bdom scFv; PPB 6559
B4: the “percentage bound to human RBC” value was determined as 67.9% in experiment [7]; 92.4% in experiment [8]; 13.8% in experiment [10]; 52.8% in [12]; 16.3% in experiment [13]; 37.1% in experiment [14]. For the same molecule, the “percentage bound to human RBC” value in experiment [16] came out at 52.8%; in [17], 93%; in experiment [18], 35.1%; in experiment [19], 88.3%; in experiment [21], 0%; in [22], 93.3%. The “percentage bound to human RBC” value in [24] stood at 20.5%. Besides, the “% bound to Cyno RBC” value in experiment [9] was -1.9%; in experiment [11] it was 0%; in [15], -12.5%; in experiment [20], -9.8%; in experiment [23], -1.9%; in experiment [25] it was -19.3%. The molecule also showed a Kd in experiment [26] of 13.3 nM. Besides, the dissociation rate constant (koff) in experiment [26] is 0.00465 s⁻¹. In addition, the kon in [26] was 351000 M⁻¹ s⁻¹.

The term Kd denotes the concentration at which binding is half-saturated. As a reminder, the koff is the first-order rate constant of dissociation. A word on the kon: it is the rate constant with which the complex forms.

(Values after patent US20190359687A1 (Bayer, published 2019).)
